Measured values: IntAct's records for PubMed 18617507

B1: Serine/threonine-protein kinase VRK1 (Homo sapiens), Q99986 (parent)
chain: MPRVKAAQAGRQSSAKRHLAEQFAVGEIITDMAKKEWKVGLPIGQGGFGCIYLADMNSSESVGSDAPCVVKVEPSDNGPLFTELKFYQRAAKPEQIQKWIRTRKLKYLGVPKYWGSGLHDKNGKSYRFMIMDRFGSDLQKIYEANAKRFSRKTVLQLSLRILDILEYIHEHEYVHGDIKASNLLLNYKNPDQVYLVDYGLAYRYCPEGVHKEYKEDPKRCHDGTIEFTSIDAHNGVAPSRRGDLEILGYCMIQWLTGHLPWEDNLKDPKYVRDSKIRYRENIASLMDKCFPEKNKPGEIAKYMETVKLLDYTEKPLYENLRDILLQGLKAIGSKDDGKLDLSVVENGGLKAKTITKKRKKEIEESKEPGVEDTEWSNTQTEEAIQTRSRTRKRVQK

Variants of: B1
Conditions: with ran_human RAN

| Variant | effect of a mutation on the interaction |
| --- | --- |
| K179E | decreasing interaction |
